According to publication PMC3667722:

Legend:
[1] = molecular target: GST-p120-catenin isoform 4A (mouse); assay: pull-down
[2] = molecular target: GST-p120-catenin isoform 4A Δ560–628 (mouse); assay: pull-down

Sequence of GST-p120-catenin isoform 4A (mouse) (P30999 whole entry, canonical isoform): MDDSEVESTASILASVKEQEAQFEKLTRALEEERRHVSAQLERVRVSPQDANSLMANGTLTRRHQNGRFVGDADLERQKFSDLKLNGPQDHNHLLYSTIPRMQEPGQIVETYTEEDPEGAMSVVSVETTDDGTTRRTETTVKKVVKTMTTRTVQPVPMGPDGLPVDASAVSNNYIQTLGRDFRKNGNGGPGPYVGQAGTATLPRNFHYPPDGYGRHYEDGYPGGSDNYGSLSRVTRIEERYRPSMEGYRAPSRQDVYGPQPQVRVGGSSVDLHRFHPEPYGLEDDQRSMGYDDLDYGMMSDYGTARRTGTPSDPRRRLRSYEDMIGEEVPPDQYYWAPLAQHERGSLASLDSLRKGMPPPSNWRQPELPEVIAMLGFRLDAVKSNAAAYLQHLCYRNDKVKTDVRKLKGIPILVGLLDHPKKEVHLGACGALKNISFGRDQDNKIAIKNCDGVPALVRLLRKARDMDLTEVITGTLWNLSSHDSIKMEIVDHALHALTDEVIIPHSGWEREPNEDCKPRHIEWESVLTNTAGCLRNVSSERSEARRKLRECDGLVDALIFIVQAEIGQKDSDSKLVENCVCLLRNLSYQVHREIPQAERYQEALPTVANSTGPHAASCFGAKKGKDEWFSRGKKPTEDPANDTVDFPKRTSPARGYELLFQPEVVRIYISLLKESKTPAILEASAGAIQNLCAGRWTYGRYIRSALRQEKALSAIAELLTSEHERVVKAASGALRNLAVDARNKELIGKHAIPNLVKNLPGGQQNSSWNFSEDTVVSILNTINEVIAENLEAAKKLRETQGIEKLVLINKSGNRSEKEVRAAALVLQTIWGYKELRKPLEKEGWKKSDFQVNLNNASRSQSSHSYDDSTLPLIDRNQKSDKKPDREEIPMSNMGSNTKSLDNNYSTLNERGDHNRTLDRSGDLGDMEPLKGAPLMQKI

p190B bound, percent of that bound to isoform 3A [1]: 43% | p190B bound, percent of that bound to isoform 3A [2]: 38%
Substance: p190RhoGAP-B (from UniProt Q13017 1-1502) (natural protein)
